Assay results reported in patent US20110166032A1, “Design and Use of Sortilin Specific Molecular Imaging Ligands” (H. LUNDBECK A/S, priority 2008, published 2011).
No end group written: not given here.

B1: propeptide of Nerve Growth Factor (NGFpro), E. coli expressed, His6 tag removed by TEV (ligand)
chain: EPHSESNVPAGHTIPQVHWTKLQHSLDTALRRARSAPAAAIAARVAGQTRNITVDPRLFKKRRLRSPRVLFSTQPPREAADTQDLDFEVGGAAPFNRTHRSKR
notes: also called NGF propeptide; pro-domain of Nerve Growth Factor
B2: NGFpro: propeptide of Nerve Growth Factor, amino acid residues 19 to 121 of SEQ ID NO 6 (protein)
chain: EPHSESNVPAGHTIPQVHWTKLQHSLDTALRRARSAPAAAIAARVAGQTRNITVDPRLFKKRRLRSPRVLFSTQPPREAADTQDLDFEVGGAAPFNRTHRSKR
modifications: left off: a dimerising Fc or GST
B3: GST-tagged Sortilin propeptide (GST-Sort-pro) (other)
chain: QDRLDAPPPPAAPLPRWSGPIGVSWGLRAAAAGGAFPRGGRWRR
modifications: also: fused to GST, order and linker not given here
notes: the construct is 'as previously described (5)'; also called Sortilin propeptide fused to GST; not shown: glutathione S-transferase (GST) tag
B4: BDNF: Mature BDNF (SEQ ID NO. 7) purchased from R&D Systems (protein, listed as Homo sapiens)
chain: MTILFLTMVISYFGCMKAAPMKEANIRGQGGLAYPGVRTHGTLESVNGPKAGSGLTSLADTFEHVIEELLDEDQKVRPNEENNKDADLYTSRVMLSSQVPLEPPLLFLLEEYKNYLDAANMSMRVRRHSDPARRGELSVCDSISEWVTAADKKTAVDMSGGTVTVLEKVPVSKGQLKQYFYETKCNPMGYTKEGCRGIDKRHWNSQCRTTQSYVRALTMDSKKRIGWRFIRIDTSCVCTLTIKRGR
modifications: SIGNAL (1)..(18) Signal peptide of BDNF

Tests used:
immobilized sSortilin = biological target: T1, immobilized sSortilin (Homo sapiens, UniProt Q99523); assay: Surface plasmon resonance: inhibition of ligand binding to immobilized sSortilin by Neurotensin derived peptides; conditions: for inhibition of Sortilin's binding of its own propeptide (Sort-pro): GST-Sort-pro binding to immobilized sSortilin, FIG. 3A+B
T1 construct: His6 (C); made in house; host or cells: CHO-K1
T1 sequence (Q99523 78-755): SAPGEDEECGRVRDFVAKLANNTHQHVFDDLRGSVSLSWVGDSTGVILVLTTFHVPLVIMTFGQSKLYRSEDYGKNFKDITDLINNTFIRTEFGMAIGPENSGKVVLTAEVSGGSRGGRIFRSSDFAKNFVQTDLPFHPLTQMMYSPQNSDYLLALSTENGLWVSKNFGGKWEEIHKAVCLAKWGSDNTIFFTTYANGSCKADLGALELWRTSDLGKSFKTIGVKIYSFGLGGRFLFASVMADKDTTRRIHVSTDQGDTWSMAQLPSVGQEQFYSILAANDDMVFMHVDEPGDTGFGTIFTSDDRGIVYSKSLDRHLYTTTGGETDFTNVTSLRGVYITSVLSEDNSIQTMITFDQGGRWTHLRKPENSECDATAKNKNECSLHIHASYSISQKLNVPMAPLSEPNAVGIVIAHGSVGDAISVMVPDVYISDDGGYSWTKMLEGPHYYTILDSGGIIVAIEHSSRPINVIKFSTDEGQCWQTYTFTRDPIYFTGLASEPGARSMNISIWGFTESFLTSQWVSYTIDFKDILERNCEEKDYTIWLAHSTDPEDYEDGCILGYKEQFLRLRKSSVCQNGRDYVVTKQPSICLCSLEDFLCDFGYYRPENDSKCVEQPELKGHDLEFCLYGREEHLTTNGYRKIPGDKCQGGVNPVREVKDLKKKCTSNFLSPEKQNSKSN
Protocol: (§1) Surface plasmon resonance (SPR) measurements were performed on a BIAcore 2000 instrument (Biacore Sweden) equipped with CM5 sensor chips maintained at 20° C. A continuous flow of HBS buffer (10 mM HEPES pH 7.4, 3.4 mM EDTA, 150 mM NaCl, 0.005% surfactant P20) passing over the sensor surface was maintained at 5 μl/min. […] A sortilin solution (320 μl, 5 μg/ml in 10 mM sodium acetate pH 4.0) was then injected over flow cells 1 and 2 at a flow rate of 15 μl/min. Remaining binding sites in all three flow cells were blocked by injection (5 μl/min) of 70 μl of 1 M ethanolamine pH 8.5. […] Screening of the samples was performed by injecting aliquots of 50 μl, at concentrations of 0.1-8 μM, through all flow cells with a flow rate of 5 μl/min. Unless otherwise stated, the samples were dissolved in 10 mM HEPES pH 7.4, 150 mM NaCl, 1.5 mM CaCl2, 1 mM EGTA, 0.005% surfactant P20. Sample buffer was also used as running buffer. The BIAcore response is expressed in relative response units (RU), i.e. the difference in response between the immobilized protein flow cell and the corresponding control flow cell (activated and blocked but without protein). Regeneration of the sensor chip after each cycle of analysis was performed by injecting 20 μl of 10 mM glycine/HCl pH 4.0, 500 mM NaCl, 20 mM EDTA and 0.005% surfactant P20. For calciumfree conditions, HBS containing 20 mM EDTA was used as sample as well as running buffer.

sSortilin S316E mutant [1] = biological target: T2, sSortilin S316E mutant (Homo sapiens, UniProt Q99523, S316E); assay: Surface plasmon resonance: ligand binding to purified S316E mutant sSortilin compared with wt sSortilin; conditions: compared with wtSortilin, SPR
T2 construct: His6 (C); made in house; host or cells: CHO cells
T2 sequence (Q99523 78-755 S316E): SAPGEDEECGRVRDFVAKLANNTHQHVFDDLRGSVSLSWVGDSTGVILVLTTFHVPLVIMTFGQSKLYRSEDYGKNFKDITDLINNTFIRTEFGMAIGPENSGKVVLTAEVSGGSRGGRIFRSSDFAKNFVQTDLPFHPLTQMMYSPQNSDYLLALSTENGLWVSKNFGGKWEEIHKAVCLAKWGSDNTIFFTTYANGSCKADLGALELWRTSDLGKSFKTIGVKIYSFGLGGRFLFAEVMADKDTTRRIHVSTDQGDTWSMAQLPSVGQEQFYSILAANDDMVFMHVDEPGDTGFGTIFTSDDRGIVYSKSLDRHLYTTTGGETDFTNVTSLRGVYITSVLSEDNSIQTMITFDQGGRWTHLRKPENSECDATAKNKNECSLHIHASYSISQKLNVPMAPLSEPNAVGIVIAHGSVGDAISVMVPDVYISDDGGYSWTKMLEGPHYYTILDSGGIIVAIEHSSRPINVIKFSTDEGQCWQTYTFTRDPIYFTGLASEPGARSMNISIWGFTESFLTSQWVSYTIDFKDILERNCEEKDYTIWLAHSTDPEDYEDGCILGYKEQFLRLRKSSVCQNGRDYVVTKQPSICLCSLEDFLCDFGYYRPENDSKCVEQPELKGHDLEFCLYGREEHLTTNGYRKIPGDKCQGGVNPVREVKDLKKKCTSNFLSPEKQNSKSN
Protocol: as §1

[2] = biological target: T3, Soluble Sortilin (sSortilin), luminal domain of human Sortilin fused C-terminally to His6 (human, UniProt Q99523 78-755); assay: SPR (BIAcore 3000), immobilised sSortilin
T3 construct: Expressed in CHO-K1 cells; 1; also called wtSortilin; wt sSortilin
T3 sequence: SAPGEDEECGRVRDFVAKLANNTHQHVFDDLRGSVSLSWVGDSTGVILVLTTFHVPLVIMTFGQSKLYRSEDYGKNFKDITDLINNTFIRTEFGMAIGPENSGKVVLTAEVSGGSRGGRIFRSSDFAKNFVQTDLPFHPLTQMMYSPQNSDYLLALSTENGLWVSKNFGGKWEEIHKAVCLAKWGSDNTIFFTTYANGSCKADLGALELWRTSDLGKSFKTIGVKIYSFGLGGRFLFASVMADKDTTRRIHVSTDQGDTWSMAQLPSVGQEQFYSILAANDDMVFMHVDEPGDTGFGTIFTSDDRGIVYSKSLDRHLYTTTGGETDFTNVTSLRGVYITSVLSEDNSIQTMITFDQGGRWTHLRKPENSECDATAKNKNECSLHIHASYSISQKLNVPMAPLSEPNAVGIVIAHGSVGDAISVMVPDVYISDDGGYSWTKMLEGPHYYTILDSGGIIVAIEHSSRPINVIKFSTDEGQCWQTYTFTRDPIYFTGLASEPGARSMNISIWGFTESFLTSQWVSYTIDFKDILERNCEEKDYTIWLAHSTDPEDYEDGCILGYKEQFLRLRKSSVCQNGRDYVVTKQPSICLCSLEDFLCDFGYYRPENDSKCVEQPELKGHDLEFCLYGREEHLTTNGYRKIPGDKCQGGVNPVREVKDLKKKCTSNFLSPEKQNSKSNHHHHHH
Protocol: All measurements were performed on a BIAcore 3000 instrument (Biacore Sweden) maintained at 20° C. A continuous flow of buffer F (10 mM HEPES pH=7.4, 150 mM (NH₄)₂SO₄, 1.5 mM CaCl₂, 1.5 mM EGTA and 0.005% Tween-20) was passed over the CM5 chip sensor surface at 5 μl/min.

sSortilin S316E mutant [3] = biological target: T4, sSortilin S316E mutant (human, UniProt Q99523 78-755); assay: SPR, immobilised S316E sSortilin
T4 construct: those of wt sSortilin are used
T4 sequence: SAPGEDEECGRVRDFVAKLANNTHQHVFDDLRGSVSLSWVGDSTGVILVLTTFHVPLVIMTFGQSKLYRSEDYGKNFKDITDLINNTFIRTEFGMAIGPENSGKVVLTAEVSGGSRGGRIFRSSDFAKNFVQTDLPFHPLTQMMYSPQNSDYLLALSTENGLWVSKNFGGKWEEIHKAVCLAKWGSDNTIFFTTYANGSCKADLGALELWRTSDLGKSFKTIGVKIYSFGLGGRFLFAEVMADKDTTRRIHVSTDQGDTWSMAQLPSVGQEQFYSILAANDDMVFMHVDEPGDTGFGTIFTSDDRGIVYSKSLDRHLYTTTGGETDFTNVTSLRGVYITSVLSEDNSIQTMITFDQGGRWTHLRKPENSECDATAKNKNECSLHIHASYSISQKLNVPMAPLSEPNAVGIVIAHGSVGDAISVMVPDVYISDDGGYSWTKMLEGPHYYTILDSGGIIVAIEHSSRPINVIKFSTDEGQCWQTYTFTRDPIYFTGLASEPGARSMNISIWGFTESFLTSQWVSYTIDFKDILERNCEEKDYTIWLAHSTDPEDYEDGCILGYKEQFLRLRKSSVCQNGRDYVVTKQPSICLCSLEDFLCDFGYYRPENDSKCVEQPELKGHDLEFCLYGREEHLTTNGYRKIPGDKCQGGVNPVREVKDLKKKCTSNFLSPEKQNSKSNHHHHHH
Protocol: as §1, with “For calciumfree conditions, HBS containing 20 mM EDTA was used as sample as well as running buffer.” left out

| Molecule | inhibition of Sortilin's binding of its own propeptide (Sort-pro) (immobilized sSortilin; SPR) | binding to S316E mutant sSortilin (sSortilin S316E mutant [1]) | further results |
| --- | --- | --- | --- |
| Tyr-Ile-Leu [Tyr11-Ile-Leu13] | full inhibition |  | affinity for Sortilin (summary statement) (immobilized sSortilin): high affinity; inhibition of binding of the prodomain of NGF to sSortilin (immobilized sSortilin; GST-tagged propeptide of NGF, SPR, FIG. 3C): hampers binding; inhibition of binding of RAP to sSortilin (immobilized sSortilin; SPR, FIG. 3D): hampers binding |
| Sort-pro: Sortilin's own propeptide (amino acid residues 34-77 of SEQ ID NO. 1), used fused to GST (QDRLDAPPPPAAPLPRWSGPIGVSWGLRAAAAGGAFPRGGRWRR; also: fused to GST) |  | no binding |  |
| Arg8-Arg-Pro-Tyr-Ile-Leu13-NH2 [reference compound] | fails to inhibit |  |  |
| Arg9-Pro-Tyr-Ile-Leu13 [reference compound] | equally effective |  |  |
| B1 |  |  | Kd [2]: ~10 nM |
| B2 |  | did bind |  |
| B3 |  |  | binding result (sSortilin S316E mutant [3]): no binding |
| B4 |  | did bind |  |
